In USRE47103 (AGENSYS, dated 2018):
Each block holds one binder with its values, some of them ahead of it.

How the values were obtained:
[1] = target: T1, 158P1D7 protein expressed on the cell surface (human, UniProt Q9H5Y7 27-841); test: binding to 158P1D7 expressing cells; method not given
T1 construct: No signal peptide limits are stated; also called SLITRK6; SLITRK-6
T1 sequence: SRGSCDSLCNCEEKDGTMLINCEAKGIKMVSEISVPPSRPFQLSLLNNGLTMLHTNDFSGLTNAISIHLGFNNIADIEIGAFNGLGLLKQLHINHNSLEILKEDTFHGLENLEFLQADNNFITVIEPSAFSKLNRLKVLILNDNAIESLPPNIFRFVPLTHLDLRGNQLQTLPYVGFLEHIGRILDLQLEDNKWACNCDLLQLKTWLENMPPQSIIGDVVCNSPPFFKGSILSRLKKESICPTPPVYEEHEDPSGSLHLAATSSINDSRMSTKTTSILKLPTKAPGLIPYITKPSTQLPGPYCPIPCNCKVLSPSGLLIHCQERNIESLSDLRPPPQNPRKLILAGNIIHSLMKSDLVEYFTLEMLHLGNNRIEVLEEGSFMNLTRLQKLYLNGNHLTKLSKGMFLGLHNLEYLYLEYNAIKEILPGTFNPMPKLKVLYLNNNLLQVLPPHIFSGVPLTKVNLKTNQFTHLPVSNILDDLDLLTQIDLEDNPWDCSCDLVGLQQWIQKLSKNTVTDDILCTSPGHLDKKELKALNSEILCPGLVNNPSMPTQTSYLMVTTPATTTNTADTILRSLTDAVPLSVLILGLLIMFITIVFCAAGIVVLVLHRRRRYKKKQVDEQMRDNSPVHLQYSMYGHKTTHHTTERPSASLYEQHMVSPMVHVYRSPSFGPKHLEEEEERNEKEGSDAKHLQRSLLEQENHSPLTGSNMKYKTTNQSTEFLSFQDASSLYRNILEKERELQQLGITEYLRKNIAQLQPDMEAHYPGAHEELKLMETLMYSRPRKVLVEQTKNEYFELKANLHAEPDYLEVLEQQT

[2] = target: T1, 158P1D7 protein expressed on the cell …; test: FACS saturation binding on SW780 cells, one site binding fit (Graphpad Prism)

binding result [1]: binds
B1: 158P1D7 MAb Ha15-10ac12 (antibody, human IgG2, kappa, V domains shown)
VH: QVQLVESGGGVVQPGRSLRLSCAASGFTFSSYGMHWVRQAPGKGLEWVAVIWYDGSNQYYADSVKGRFTISRDNSKNTLFLQMHSLRAEDTAVYYCARGLTSGRYGMDVWGQGTTVTVSS
VL: DIVMTQSPLSLPVTPGEPASISCRSSQSLLLSHGFNYLDWYLQKPGQSPQLLIYLGSSRASGVPDRFSGSGSGTDFTLKISRVEAEDVGLYYCMQPLQIPWTFGQGTKVEIKR
notes: Fully human IgG2 kappa antibody from XenoMouse; It was tested both as material purified from the hybridoma and as recombinant material from CHO-K1SV cells; also called Ha15-10ac12 MAb

Kd [2]: 5 pM
B2: Ha15-10ac12vcMMAE (other)
heavy: QVQLVESGGGVVQPGRSLRLSCAASGFTFSSYGMHWVRQAPGKGLEWVAVIWYDGSNQYYADSVKGRFTISRDNSKNTLFLQMHSLRAEDTAVYYCARGLTSGRYGMDVWGQGTTVTVSSASTKGPSVFPLAPCSRSTSESTAALGCLVKDYFPEPVTVSWNSGALTSGVHTFPAVLQSSGLYSLSSVVTVPSSNFGTQTYTCNVDHKPSNTKVDKTVERKCCVECPPCPAPPVAGPSVFLFPPKPKDTLMISRTPEVTCVVVDVSHEDPEVQFNWYVDGVEVHNAKTKPREEQFNSTFRVVSVLTVVHQDWLNGKEYKCKVSNKGLPAPIEKTISKTKGQPREPQVYTLPPSREEMTKNQVSLTCLVKGFYPSDIAVEWESNGQPENNYKTTPPMLDSDGSFFLYSKLTVDKSRWQQGNVFSCSVMHEALHNHYTQKSLSLSPGK
light: DIVMTQSPLSLPVTPGEPASISCRSSQSLLLSHGFNYLDWYLQKPGQSPQLLIYLGSSRASGVPDRFSGSGSGTDFTLKISRVEAEDVGLYYCMQPLQIPWTFGQGTKVEIKRTVAAPSVFIFPPSDEQLKSGTASVVCLLNNFYPREAKVQWKVDNALQSGNSQESVTEQDSKDSTYSLSSTLTLSKADYEKHKVYACEVTHQGLSSPVTKSFNRGEC
modifications: vcMMAE (Val-Cit linker with monomethyl auristatin E) on cysteine sulfur atoms after partial reduction of disulfides with TCEP; positions not given; vcMMAE (Val-Cit linker with monomethyl auristatin E) on cysteine sulfur atoms after partial reduction of disulfides with TCEP; positions not given; preferred p between 3.5 and 3.7 drugs per antibody
notes: also called 158P1D7 ADC; Ha15ac12vcMMAE
